The values that follow come from patent publication US20240343798A1 (GV20 THERAPEUTICS, published 2024).

The chains are these.
T1: recombinant human IGSF8 extracellular domain tagged by a human Fc region (IGSF8-hFc) (human, UniProt Q969P0 28-579)
T1 construct: extracellular domain; also called IGSF8-Fc; IGSF8 hFc fusion protein; not shown: human Fc region
T1 sequence (looked up): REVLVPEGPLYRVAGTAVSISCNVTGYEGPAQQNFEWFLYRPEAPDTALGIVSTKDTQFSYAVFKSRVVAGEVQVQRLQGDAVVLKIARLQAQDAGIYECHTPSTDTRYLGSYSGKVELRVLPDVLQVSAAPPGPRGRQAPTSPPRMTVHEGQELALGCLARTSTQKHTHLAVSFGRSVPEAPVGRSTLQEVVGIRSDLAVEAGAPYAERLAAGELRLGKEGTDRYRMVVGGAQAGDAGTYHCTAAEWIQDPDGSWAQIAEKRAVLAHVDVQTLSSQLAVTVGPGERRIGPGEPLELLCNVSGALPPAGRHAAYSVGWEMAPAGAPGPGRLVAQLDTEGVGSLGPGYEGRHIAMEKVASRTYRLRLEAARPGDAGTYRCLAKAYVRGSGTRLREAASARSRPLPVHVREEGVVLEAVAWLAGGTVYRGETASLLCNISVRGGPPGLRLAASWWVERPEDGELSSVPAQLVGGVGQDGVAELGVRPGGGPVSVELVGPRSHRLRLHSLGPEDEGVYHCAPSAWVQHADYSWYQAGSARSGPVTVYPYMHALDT

T2: IGSF8 protein without D1 domain (UniProt Q969P0 150-579, limits assumed)
T2 construct: domain: D2-D4 (without D1); also called D24; D2-4
T2 sequence (looked up): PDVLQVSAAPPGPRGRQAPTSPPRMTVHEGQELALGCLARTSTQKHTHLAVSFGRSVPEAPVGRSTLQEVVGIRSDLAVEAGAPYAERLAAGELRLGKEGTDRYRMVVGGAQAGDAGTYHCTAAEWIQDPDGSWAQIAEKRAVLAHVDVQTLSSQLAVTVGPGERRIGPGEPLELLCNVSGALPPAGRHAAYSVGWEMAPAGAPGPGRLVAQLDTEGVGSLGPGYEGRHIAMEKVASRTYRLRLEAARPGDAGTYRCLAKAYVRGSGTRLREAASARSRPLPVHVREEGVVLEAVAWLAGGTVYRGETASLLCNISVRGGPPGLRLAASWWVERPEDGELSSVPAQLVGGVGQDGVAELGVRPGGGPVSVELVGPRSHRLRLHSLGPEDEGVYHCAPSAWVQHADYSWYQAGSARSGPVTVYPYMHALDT

T3: human IGSF8 expressed on the cell surface (human, UniProt Q969P0 28-613)
T3 construct: whole, on cells; Forced expression on CT26, MC38 or K562 cells; endogenous on A431 cells; also called full-length IGSF8
T3 sequence (looked up): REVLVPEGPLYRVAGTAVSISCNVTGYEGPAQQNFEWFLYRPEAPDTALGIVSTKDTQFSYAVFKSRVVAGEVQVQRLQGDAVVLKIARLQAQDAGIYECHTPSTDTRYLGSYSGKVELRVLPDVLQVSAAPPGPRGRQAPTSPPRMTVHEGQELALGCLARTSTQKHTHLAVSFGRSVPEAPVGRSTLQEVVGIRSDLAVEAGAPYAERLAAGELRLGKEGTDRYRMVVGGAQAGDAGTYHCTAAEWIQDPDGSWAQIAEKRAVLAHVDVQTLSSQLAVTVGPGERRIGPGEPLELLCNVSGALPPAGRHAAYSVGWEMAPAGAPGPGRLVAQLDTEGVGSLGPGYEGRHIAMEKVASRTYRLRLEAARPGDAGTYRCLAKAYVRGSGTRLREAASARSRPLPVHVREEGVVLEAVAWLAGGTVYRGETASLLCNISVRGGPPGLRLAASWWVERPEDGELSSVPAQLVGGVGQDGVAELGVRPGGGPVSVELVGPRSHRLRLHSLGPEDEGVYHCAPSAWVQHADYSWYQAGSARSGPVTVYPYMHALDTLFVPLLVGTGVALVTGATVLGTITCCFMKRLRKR

B1: KIR3DL1 D3 construct (receptor, human, UniProt P43629 222-316, looked up)
chain: EKPSLSAQPGPKVQAGESVTLSCSSRSSYDMYHLSREGGAHERRLPAVRKVNRTFQADFPLGPATHGGTYRCFGSFRHSPYEWSDPSDPLLVSVT
notes: domain: D3; On CT26 cells, thy1.1 tag vector; also called D1/D3 construct
B2: Antibody C30 (B34) (antibody, human IgG1, V domains shown)
VH: EVQLLESGGGLVQPGGSLRLSCAASGFTFSSYAMSWVRQAPGKGLEWVSGITGSGGSTYYADSVKGRFTISRDNSKNTLYLQMNSLRAEDTAVYYCARGRQVDKWGQGTLVTVSS
VL: DIMLTQSPSSLSASVGDRVTITCRASQSIHNYLNWIQQTPGKAPKLLVFAASTLQRGVPPRYSGRGSGTEFTLTISSLQPEDFATYYCQQSYTTPLTFGGGTKVEIRR
notes: Fully human, expressed in CHO cells; also called mAb-B34 (C30)
B3: KIR3DL2 D3 construct (receptor, human, UniProt P43630 222-316, looked up)
chain: EKPSLSAQPGPTVQAGENVTLSCSSWSSYDIYHLSREGEAHERRLRAVPKVNRTFQADFPLGPATHGGTYRCFGSFRALPCVWSNSSDPLLVSVT
notes: as for B1
B4: KLRC1/KLRD1 heterodimeric receptor (receptor)
chain 1: not shown
chain 2: MAVFKTTLWRLISGTLGIICLSLMSTLGILLKNSFTKLSIEPAFTPGPNIELQKDSDCCSCQEKWVGYRCNCYFISSEQKTWNESRHLCASQKSSLLQLQNTDELDFMSSSQQFYWIGLSYSEEHTAWLWENGSALSQYLFPSFETFNTKNCIAYNPNGNALDESCEDKNRYICKQQLI
notes: whole, on cells; CT26 cells co-transduced with both lentiviral constructs; also called KLRC1&D1 heterodimer; KLRC1/D1
B5: D1 domain of IGSF8 protein (ligand, UniProt Q969P0 28-149, looked up)
chain: REVLVPEGPLYRVAGTAVSISCNVTGYEGPAQQNFEWFLYRPEAPDTALGIVSTKDTQFSYAVFKSRVVAGEVQVQRLQGDAVVLKIARLQAQDAGIYECHTPSTDTRYLGSYSGKVELRVL
notes: domain: D1; also called D1 (Ig-V set) ECD of IGSF8

The target of experiment [1] is T1, recombinant human IGSF8 extracellular …. Kind of experiment: flow cytometry, IGSF8-hFc on CT26 cells with single-domain KIR3DL1/2 constructs, MFI normalized to Thy1.1. In general terms: A flow cytometer gives signals particle by particle.
The target of experiment [2] is T2, IGSF8 protein without D1 domain. Kind of experiment: flow cytometry, CT26 cells expressing IGSF8-D24 (IGSF8 without D1).
Experiment [3] deals with T3, human IGSF8 expressed on the cell …. Nature of the experiment: cell-cell conjugate assay, labelled MC38 and CT26 cells mixed 1:1, flow cytometry. The text has this: A competition assay (FIG. 23A) was then designed to test whether these seven mAbs block IGSF8 binding to the KIR3DL1/2 or the KLRC1&D1 heterodimer receptors. MC38 cells (a cell line derived from C57BL6 murine colon adenocarcinoma cells from NIH) with forced expression of IGSF8 protein on cell surface by lentiviral delivery of a human IGSF8-expression construct were labeled with CFSE (Carboxyfluorescein succinimidyi ester, Thermo). CT26 cells with forced expression of either KIR3DL1/2 or KLRC1&D1 were labeled with CellTrace Far Red (Thermo). The MC38 cells were then mixed at a 1:1 ratio with the CT26 cells for about an hour at room temperature. The formation of MC38 and CT26 cell/cell conjugates was assessed by flow cytometry.

Experiment [4] addresses T1, recombinant human IGSF8 extracellular …. Kind of experiment: flow cytometry, IGSF8-hFc on transduced CT26 cells, MFI normalized to Thy1.1 expression. The method, then: (§1) KLRC1 also contains a ITIM motif in its intracellular domain, and was known to be a inhibitory receptor of NK or CD8⁺ T cells as part of a heterodimer with KLRD1 on the cell surface. […] Specifically, 100,000 CT26 cells overexpressing the antigens (KIRs or KLRs) were washed with PBS buffer containing 2% FBS, and incubated with 100 μL IGSF8 recombinant proteins or antibodies (5 μg/mL) for 30 minutes on ice. Cells were then washed twice with wash buffer, and incubated with 100 μL of 1:100 anti-human Fc-PE antibody for 15 minutes on ice. Cells were washed twice with wash buffer and analyzed on a FACS analyzer (CytoFlex, Beckman). In these experiments, the mean fluorescence intensity (MFI) of IGSF8 binding to different CT26 cells were normalized by the expression of different KLRs on CT26 cells using an anti-thy1.1 mAb via flow cytometry.

Another experiment deals with T4, KIR3DL1 (human, UniProt P43629 22-444).
T4 construct: whole, on cells; On mouse CT26 cells, lentiviral vector with a thy1.1 tag; also called KIR3DL1/2
Kind of experiment: flow cytometry, hFc fusion proteins on transduced CT26 cells, MFI normalized. The method, then: (§2) For this experiment, different human KIR receptors (KIR2DL1, KIR2DL2, KIR2DL3, KIR2DL4, KIR2DL5A, KIR2DL5B, KIR3DL1, KIR3DL2, KIR3DL3) were first cloned into a proprietary lentiviral vector containing a thy1.1 tag (FIG. 17A). Then mouse CT26 cells, were transducted by these lentiviral constructs, and IGSF8 binding was tested with biotin-labelled recombinant IGSF8 hFc fusion protein. The mean fluorescence intensity (MFI) of IGSF8 binding to different CT26 cells were normalized by the expression of different KIRs on CT26 cells using an anti-thy1.1 mAb (Biolegend) via flow cytometry.
as §1

The target in another experiment is T5, KIR3DL2 (human, UniProt P43630 22-455).
T5 construct: whole, on cells; On mouse CT26 cells, lentiviral vector with a thy1.1 tag; also called KIR3DL1/2
Described as above. The method, then:
as §2, §1

Experiment [5] has as its target B4. Described as above. The method, then:
as §2, §1

T4 sequence (P43629 22-444): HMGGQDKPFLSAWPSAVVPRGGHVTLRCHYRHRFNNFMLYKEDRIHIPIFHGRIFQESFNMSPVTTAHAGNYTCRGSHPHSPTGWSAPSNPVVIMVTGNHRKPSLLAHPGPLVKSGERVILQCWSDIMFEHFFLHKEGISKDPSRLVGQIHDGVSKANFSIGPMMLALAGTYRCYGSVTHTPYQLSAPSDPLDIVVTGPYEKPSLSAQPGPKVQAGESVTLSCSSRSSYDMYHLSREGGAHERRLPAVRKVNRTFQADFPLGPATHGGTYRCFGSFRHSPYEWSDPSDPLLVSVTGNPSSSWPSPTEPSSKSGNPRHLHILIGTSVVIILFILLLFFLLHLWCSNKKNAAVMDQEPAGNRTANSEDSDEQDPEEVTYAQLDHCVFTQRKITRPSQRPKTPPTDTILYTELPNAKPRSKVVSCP
T5 sequence (P43630 22-455): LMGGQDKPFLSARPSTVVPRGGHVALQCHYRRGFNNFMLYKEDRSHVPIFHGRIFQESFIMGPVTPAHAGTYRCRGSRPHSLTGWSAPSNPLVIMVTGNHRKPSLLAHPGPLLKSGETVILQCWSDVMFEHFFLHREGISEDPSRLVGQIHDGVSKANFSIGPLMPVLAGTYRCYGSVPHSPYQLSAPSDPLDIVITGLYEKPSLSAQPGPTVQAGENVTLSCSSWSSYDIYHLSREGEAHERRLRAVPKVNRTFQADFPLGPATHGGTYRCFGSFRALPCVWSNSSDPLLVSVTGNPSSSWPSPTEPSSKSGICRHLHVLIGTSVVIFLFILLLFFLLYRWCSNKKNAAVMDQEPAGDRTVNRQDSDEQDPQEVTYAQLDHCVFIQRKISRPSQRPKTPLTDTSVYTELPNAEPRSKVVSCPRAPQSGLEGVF

Turning to B1, in experiment [1], the binding result is recorded as “no binding”.

On to B2, for which, in experiment [2], the binding result is on record as “no binding”.

On to B3, for which the binding result in experiment [1] is reported as “no binding”.

With B4, the binding result in experiment [3] and in experiment [4] was “binds” throughout.

In the case of B5, the binding result (in the experiment with KIR3DL1; in the experiment with KIR3DL2; in experiment [5]) was “binds” each time.
